{
  "source": "patent US20250163127A1",
  "about": "(published 2025)",
  "key": {"[1]": {"target": "human CD28 (human, UniProt P10747)", "test": "flow cytometry, Expi-CD28 cells"}, "[2]": {"target": "T1, CD80 (human)", "T1 chain": "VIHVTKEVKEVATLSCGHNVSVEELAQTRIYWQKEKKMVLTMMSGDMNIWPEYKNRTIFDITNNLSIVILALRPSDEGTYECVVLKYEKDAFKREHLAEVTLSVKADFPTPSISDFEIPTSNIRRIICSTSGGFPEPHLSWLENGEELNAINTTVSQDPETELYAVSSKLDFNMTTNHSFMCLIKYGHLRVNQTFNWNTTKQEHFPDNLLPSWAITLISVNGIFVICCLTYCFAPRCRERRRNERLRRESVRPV", "test": "flow cytometry, CHO-CD80 cells"}, "[3]": {"target": "T2, human PD-1 (human, UniProt Q15116)", "test": "flow cytometry, Jurkat/IL-2/PD-1 cells"}, "[4]": {"target": "T3, human TIGIT (human, UniProt Q495A1)", "T3 sequence": "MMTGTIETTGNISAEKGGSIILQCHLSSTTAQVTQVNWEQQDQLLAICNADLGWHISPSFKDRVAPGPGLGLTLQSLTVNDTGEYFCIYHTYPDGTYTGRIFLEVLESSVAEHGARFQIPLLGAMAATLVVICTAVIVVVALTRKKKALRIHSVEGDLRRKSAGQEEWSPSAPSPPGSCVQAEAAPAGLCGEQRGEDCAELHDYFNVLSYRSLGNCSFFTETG", "test": "flow cytometry, Jurkat/IL-2/TIGIT cells"}, "[5]": {"target": "T2, human PD-1", "test": "flow cytometry, CHO/PD-1 cells, 100 nM, anti-FLAG-PE"}, "[6]": {"target": "T4, TIGIT (human, UniProt Q495A1)", "T4 sequence": "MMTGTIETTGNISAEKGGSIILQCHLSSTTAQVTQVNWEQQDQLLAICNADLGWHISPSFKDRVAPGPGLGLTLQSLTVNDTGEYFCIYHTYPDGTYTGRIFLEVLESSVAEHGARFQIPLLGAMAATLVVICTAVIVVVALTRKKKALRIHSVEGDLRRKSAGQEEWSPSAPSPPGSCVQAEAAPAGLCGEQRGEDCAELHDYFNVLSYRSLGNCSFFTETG", "test": "cell-based or functional assay"}, "[7]": {"target": "CD28 (human, UniProt P10747)", "test": "cell-based or functional assay"}, "[8]": {"target": "PD-1 (human, UniProt Q15116)", "test": "cell-based or functional assay"}, "[9]": {"target": "T5, human CD80 (human)", "T5 chain": "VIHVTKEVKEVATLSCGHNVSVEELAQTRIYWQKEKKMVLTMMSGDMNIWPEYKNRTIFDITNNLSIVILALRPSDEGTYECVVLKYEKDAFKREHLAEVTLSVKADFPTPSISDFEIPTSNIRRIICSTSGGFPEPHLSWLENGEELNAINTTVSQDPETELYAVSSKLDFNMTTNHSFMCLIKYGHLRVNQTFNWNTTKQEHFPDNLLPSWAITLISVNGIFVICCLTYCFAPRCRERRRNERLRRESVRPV", "test": "cell-based or functional assay"}},
  "data": [
    {"binder": "PD-L1 303-CD155 665-CTLA-4 3037-Fc (Fc fusion) FTVTVPKDLYVVEYGSNMTIECKFPVEKQLDLAALIVYWEMEGKDIIQFVHGEEDQKAQHSSYRQRARLLKDQLSLGNAALQITDVKLQDAGVYRCMISYGGGADYKRITVKVNAGGGGSGGGGSGGGGSWPPPGTGDVVVQAPTQVSGFLGDSVTLPCYLQVPNMEVTHVSQLTWARHGESGSMAVFHQTQGPWYAESKRLEFVAARLGAELRNASLRVFGLRAEDEGNYTCQFVTFPQRSRSVDIWLRVLGGGGSGGGGSGGGGSKAMHVAQPAVVFASSHGIASFVCEYASPWKATEVRVTVLRQADSQVTEVCAATYMTGNELTFLDDSICTGTSSGNQVNLTIQGLRAMDTGLYICKVEQMYPPPYLLGIGNGTQIYVIDPEPCPDSDGSGGGGSEPKSSDKTHTCPPCPAPEAEGAPSVFLFPPKPKDTLMISRTPEVTCVVVDVSHEDPEVKFNWYVDGVEVHNAKTKPREEQYNSTYRVVSVLTVLHQDWLNGKEYKCKVSNKALPAPIEKTISKAKGQPREPQVYTLPPSRDELTKNQVSLTCLVKGFYPSDIAVEWESNGQPENNYKTTPPVLDSDGSFFLYSKLTVDKSRWQQGNVFSCSVMHEALHNHYTQKSLSLSPG", "values": [
      {"measurement": "EC50", "setting": "[1]", "value": 4.15, "unit": "nM"},
      {"measurement": "EC50", "setting": "[2]", "value": 3.8, "unit": "nM"},
      {"measurement": "EC50", "setting": "[3]", "value": 1.3, "unit": "nM"},
      {"measurement": "EC50", "setting": "[4]", "value": 1.6, "unit": "nM"}
    ]},
    {"binder": "PD-L2 1417-IL16 (other) LFTVTVPKELYIIEQGSNVTLECNFDTGSHVNLGAITASLQKVENDASPHRERATLLEEQLPLGRALFHIPQVQVRDEGQYRCIIIYGDAWDYKYLTLKVKAGSGGSGGGGSGGGGSSAASASAASDVSVESTAEATVCTVTLEKMSAGLGFSLEGGKGSLHGDKPLTINRIFKGAASEQSETVQPGDEILQLGGTAMQGLTRFEAWNIIKALPDGPVTIVIRRKSLQSKETTAAGDSDYKDDDDKHHHHHH", "values": [
      {"measurement": "MFI", "setting": "[5]", "value": 19900}
    ]},
    {"binder": "CD155 665-ICOSL 2264-ICOSL 2264-CD155 665 (other) WPPPGTGDVVVQAPTQVSGFLGDSVTLPCYLQVPNMEVTHVSQLTWARHGESGSMAVFHQTQGPWYAESKRLEFVAARLGAELRNASLRVFGLRAEDEGNYTCQFVTFPQRSRSVDIWLRVLGGGGSGGGGTGGGGSDTQEKEVRAMVGSDVELSCACPEGSRFDLNDVYVYWQTSESKTVVTYHIPQHSSLEYVDSRYRNRALMSPAGMLRGDFSLRLFNVTPQDEQKFHCLVLSRSLGFQEVLSVEVTLHVAANFSVGGGGSGGGGSGGGGSDTQEKEVRAMVGSDVELSCACPEGSRFDLNDVYVYWQTSESKTVVTYHIPQHSSLEYVDSRYRNRALMSPAGMLRGDFSLRLFNVTPQDEQKFHCLVLSRSLGFQEVLSVEVTLHVAANFSVGSGGSGGGGSGGGGSWPPPGTGDVVVQAPTQVSGFLGDSVTLPCYLQVPNMEVTHVSQLTWARHGESGSMAVFHQTQGPWYAESKRLEFVAARLGAELRNASLRVFGLRAEDEGNYTCQFVTFPQRSRSVDIWLRVLGSGGGGSDYKDDDDKHHHHHH", "values": [
      {"measurement": "100 nM IFN-gamma (pg/mL), SEB assay", "setting": "[6]", "value": 2120, "unit": "pg/mL"},
      {"measurement": "100 nM IFN-gamma (pg/mL), SEB assay", "setting": "[7]", "value": 2120, "unit": "pg/mL"}
    ]},
    {"binder": "PD-L1 303-CTLA-4 3495-Fc (Fc fusion) FTVTVPKDLYVVEYGSNMTIECKFPVEKQLDLAALIVYWEMEGKDIIQFVHGEEDQKAQHSSYRQRARLLKDQLSLGNAALQITDVKLQDAGVYRCMISYGGGADYKRITVKVNAGSGGSGGGGSGGGGSKAMHVAQPAVVLASSRGIASFVCEYASPGKATEVRVTVLRQADSQVTEVCAATYMMGNELTFLDDSICTGTSSGNQVNLTIQGLRAMDTGLYICKVELMYPPPYYLGIGNGTQIYVIDPEPSPDSDQGGGGSGSGGGGSEPKSSDKTHTCPPCPAPEAEGAPSVFLFPPKPKDTLMISRTPEVTCVVVDVSHEDPEVKFNWYVDGVEVHNAKTKPREEQYNSTYRVVSVLTVLHQDWLNGKEYKCKVSNKALPAPIEKTISKAKGQPREPQVYTLPPSRDELTKNQVSLTCLVKGFYPSDIAVEWESNGQPENNYKTTPPVLDSDGSFFLYSKLTVDKSRWQQGNVFSCSVMHEALHNHYTQKSLSLSPG", "values": [
      {"measurement": "% CD25 Hi FoxP3 +", "setting": "[8]", "value": 19.1, "unit": "% at 100 nM"},
      {"measurement": "% CD25 Hi FoxP3 +", "setting": "[9]", "value": 19.1, "unit": "% at 100 nM"}
    ]},
    {"binder": "PD-L1 303-CTLA-4 3037-Fc (SEQ ID NO 3523) (Fc fusion) FTVTVPKDLYVVEYGSNMTIECKFPVEKQLDLAALIVYWEMEGKDIIQFVHGEEDQKAQHSSYRQRARLLKDQLSLGNAALQITDVKLQDAGVYRCMISYGGGADYKRITVKVNAGSGGSGGGGSGGGGSKAMHVAQPAVVLASSRGIASFVCEYASPWKATEVRVTVLRQADSQVTEVCAATYMMGSELTFPDDSICTGTSSGNQVNLTIRGLRAMDTGLYICKVEQMYPPPYLLGIGNGTQIYVIDPEPCPDSDGGGGSGSGGGGSEPKSSDKTHTCPPCPAPEAEGAPSVFLFPPKPKDTLMISRTPEVTCVVVDVSHEDPEVKFNWYVDGVEVHNAKTKPREEQYNSTYRVVSVLTVLHQDWLNGKEYKCKVSNKALPAPIEKTISKAKGQPREPQVYTLPPSRDELTKNQVSLTCLVKGFYPSDIAVEWESNGQPENNYKTTPPVLDSDGSFFLYSKLTVDKSRWQQGNVFSCSVMHEALHNHYTQKSLSLSPG", "values": [
      {"measurement": "% CD25 Hi FoxP3 +", "setting": "[8]", "value": 44.2, "unit": "% at 100 nM"},
      {"measurement": "% CD25 Hi FoxP3 +", "setting": "[9]", "value": 44.2, "unit": "% at 100 nM"}
    ]}
  ]
}
